Results on nine molecules are retold here after patent US20220396632A1 (VERSEAU THERAPEUTICS, published 2022).

Where a chain is given by its changes, count along the chain named. No end group written: not given here.

The target of experiment [1] is T1, Biotin PSGL-1(42-62) peptide, unmodified (human, C-terminal Lys-biotin).
T1 construct: Residues 42-62 followed by GGGK-biotin; also called WT; wild-type
T1 peptide: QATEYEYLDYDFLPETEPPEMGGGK
Kind of experiment: ELISA, plate-bound peptide.

For a further experiment, the target named is T2, PSGL-1(49-56)-Biotin (human, UniProt Q14242).
T2 construct: synthetic peptide; also called short PSGL-1 49-56 peptide with C-terminal biotin
T2 peptide (looked up): LDYDFLPE-biotin
Kind of experiment: ELISA, plate-immobilized biotin peptide.

Experiment [2] addresses T3, Biotin PSGL-1(42-62) L49A peptide (C-terminal Lys-biotin).
T3 peptide: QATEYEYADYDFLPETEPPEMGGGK
Nature of the experiment: ELISA, streptavidin-bound Ala peptide.

The target in experiment [3] is T4, Biotin PSGL-1(42-62) L54A peptide (C-terminal Lys-biotin).
T4 peptide: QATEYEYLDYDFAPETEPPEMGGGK
Nature of the experiment: ELISA, streptavidin-bound Ala peptide.

The target in experiment [4] is T3, Biotin PSGL-1(42-62) L49A peptide. Nature of the experiment: ELISA; against wild-type PSGL-1 42-62.
The target in experiment [5] is T5, PSGL-1 endogenously expressed on HL-60 cells (UniProt Q14242 42-412).
T5 construct: whole, on cells
T5 sequence (looked up): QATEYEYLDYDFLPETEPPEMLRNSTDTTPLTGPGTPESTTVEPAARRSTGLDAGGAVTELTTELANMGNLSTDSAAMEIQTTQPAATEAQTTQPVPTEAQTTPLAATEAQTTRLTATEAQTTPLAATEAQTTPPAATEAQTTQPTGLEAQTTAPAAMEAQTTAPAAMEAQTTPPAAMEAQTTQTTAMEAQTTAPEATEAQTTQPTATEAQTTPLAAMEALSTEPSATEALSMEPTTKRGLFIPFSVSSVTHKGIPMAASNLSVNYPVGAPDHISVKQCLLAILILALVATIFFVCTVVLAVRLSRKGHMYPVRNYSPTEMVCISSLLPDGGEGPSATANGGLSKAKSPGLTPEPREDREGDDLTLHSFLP
Kind of experiment: flow cytometry on HL-60 cells. As for the experimental part:
A typical flow cytometry assay was performed by resuspending HL-60 cells in FACS buffer (5% FBS and 0.05% Sodium Azide in PBS, pH 7.2) on ice, pelleting cells by centrifugation at 500×g for 3 min, washing cells with FACS buffer, and then blocking Fc receptors on the cells with Fc block (human TruStain FcX™, BioLegend Cat. #422302) on ice for 10 min. After washing, 50,000 cells/50 ul in FACS buffer was added to each well of a 96-well round bottomed plate (Costar, Cat. #3797), and 50 ul of serially diluted (0.06 nM-1.0 uM) test or isotype control antibody was added into duplicate wells. The plate was covered and incubated on ice for 1 h. After washing, Phycoerythrin (PE) conjugated anti-human IgG secondary antibody (Abcam; Cat. #ab99825) was added to each well and the plate incubated in the dark on ice for 30 min. After washing, the cells were fixed (1% paraformaldhyde).

In experiment [6] the target is T6, Biotin PSGL-1(42-62) F53A peptide (C-terminal Lys-biotin).
T6 peptide: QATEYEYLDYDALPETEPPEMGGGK
Kind of experiment: ELISA, streptavidin-bound Ala peptide.

The target in experiment [7] is T6, Biotin PSGL-1(42-62) F53A peptide. Kind of experiment: ELISA; against wild-type PSGL-1 42-62.
The target of experiment [8] is T1, Biotin PSGL-1(42-62) peptide, unmodified. Kind of experiment: ELISA, plate-bound mAb captures biotin peptide. As for the experimental part: Two ELISA methods were performed. One procedure detected mAb binding to its plate-immobilized target and the other measured the immobilized antibody's ability to capture biotinylated PSGL-1₄₂₋₆₂. […] The plate was incubated for 45 min at 37° C. Plates were washed 3 times with wash buffer (PBS containing 0.05% tween 20, pH 7.4) and a single concentration (2 to 500 nM) or serially diluted (0.002-100 nM) anti-PSGL-1 mAb was added (25 ul/well) in assay buffer into appropriate wells. The plate was incubated for 45 min at 37° C., washed 3 times, and an appropriate HRP-conjugated secondary antibody added (25 ul/well) (HRP goat anti-mouse or anti-human IgG). After 45 min incubation at 37° C., the plate was washed, and antibody bound to plate-immobilized target was determined at A450 nm using HRP substrate (3,3′,5,5′-etramethylbenzidine (TMB)). For each antibody, duplicate values were averaged and assay background was subtracted. Except for the following, ELISAs involving plate-immobilized mAb capturing of biotinylated PSGL-1₄₂₋₆₂ peptides was performed in the same manner as described above: 3 ug/mL/25 ul per well of mAb was coated directly onto microtiter plate wells; biotinylated unmodified or sulfotyrosine PSGL-1₄₂₋₆₂ was serially diluted (3 nM-3 uM) into appropriate wells, and antibody-bound peptide was detected using HRP-streptavidin (Jackson Immunoresearch, Cat. #016-030-084).

For experiment [9] the target is unchanged. Nature of the experiment: capture ELISA; against 3 x sY peptide. Summed up:
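Direct format: anti-PSGL-1 mAb at a single concentration (2–500 nM) or serially diluted (0.002–100 nM) on immobilized target, detected with HRP anti-IgG and TMB at A450; 45 min steps at 37° C. Capture format: coated mAb (3 ug/mL) binds biotinylated unmodified or sulfotyrosine peptide (3 nM–3 uM), detected with HRP-streptavidin.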

The target in experiment [10] is T7, Biotin PSGL-1(105-125) peptide (human, N-terminal acetyl; C-terminal Lys-biotin).
T7 peptide: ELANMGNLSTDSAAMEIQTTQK
Kind of experiment: ELISA, streptavidin-immobilized biotin peptide [cont.]. The protocol:
(§1) A typical ELISA experiment involved binding of a single concentration or serially diluted mAb in assay buffer (3% BSA in PBS containing 0.05% Tween®20, pH 7.4) onto BSA blocked high binding microtiter plate half-wells (Corning Cat. #3690), which contained PSGL-1 protein or streptavidin-immobilized biotin peptide. After incubation for 45 min. at 37° C., the plate was washed 3 times with wash buffer (PBS containing 0.05% Tween®20, pH 7.4), and an appropriate HRP-conjugated secondary antibody added (25 ul/well) (HRP goat anti-mouse or anti-human IgG). After 45 min. incubation at 37° C., the plate was washed and antibody bound to plate-immobilized target was determined at A450 nm using HRP substrate (3,3′5,5′-tetramethylbenzidine (TMB)). For each antibody, duplicate values were averaged and assay background subtracted.

In experiment [11] the target is T8, Biotin PSGL-1(290-310) peptide (human, N-terminal acetyl; C-terminal Lys-biotin).
T8 peptide: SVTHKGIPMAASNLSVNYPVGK
Described as above. The protocol: as §1

Experiment [12] addresses T9, Biotin PSGL-1(42-62) Y51A peptide (C-terminal Lys-biotin).
T9 peptide: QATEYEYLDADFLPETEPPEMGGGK
Nature of the experiment: ELISA, streptavidin-bound Ala peptide.

The target in experiment [13] is T9, Biotin PSGL-1(42-62) Y51A peptide. Nature of the experiment: ELISA; against wild-type PSGL-1 42-62.

B1: 10F01 (antibody, IgG4, V domains shown)
VH: EVQLVQSGGGLVQPGGSLRLSCAASGFTFSSYAMSWVRQAPGKGLEWVSALRGGDGGTYHADSVKGRFTISGDSSKNTLYLQMNSLRAEDTAVYYCARRMVGAAYAFDIWGQGTMVTVSS
VL: LPVLTQPHSVSESPGKTVTISCTRSSGSIADNFVQWYRQRPGSAPTTVIYEGDQRPSGVPGRFSGSIDSSSNSASLTISGLQTDDEADYYCQSFDSYNRRTHVVFGGGTKLTVL
In the case of B1, the “fold weaker binding than to sulfotyrosine PSGL-1 42-62” value in experiment [1] was over 500 fold.

B2: 43B6 (antibody, V domains shown)
VH: EVQLQQSGPDLVKPGALVKISCKASGYSFTAYYIHWVKQSHGKSLEWIGRVNPNTGGTSYNPKFKGKAILNVDKSSSTAYMELRSLTSEDSAVYYCARSGSPYYRYDDWGQGTTLTVSS
VL: ENVLTQSPAIMSASPGEKVTMTCRASSTVNSTYLHWFQQKSGASPKLWIYGSSNLASGVPARFSGSGSGTSYSLTISSVEAEDAATYYCQQYSGYPLTFGAGTTLELK
notes: Control anti-PSGL-1 mAb, recombinant; only variable domains given; also called 43B3
Consider B2, for which the “EC50 (read off the curve)” value with PSGL-1(49-56)-Biotin is about 400 pM. Further, a half-maximal effect in experiment [2] (EC50) was put at 2.63 nM. Moreover, the binding result in experiment [3] was “no binding”. The molecule also showed an EC50Ala/EC50 wt in experiment [4] of 12.2 fold.

B3: 19L04 (antibody, IgG4, V domains shown)
VH: QIQLVQSGPELKKPGETVKISCKASGYTFTTYGMSWVKQAPGKGLKWMGWINTYSGVPTYADDFKGRFAFSLETSASTAYLQINNLKIEDTATYFCARHYYGSHYFDYWGQGTTLTVSS
VL: DIMMTQSPSSLAMSVGQKVTLRCKSSQSLLNSSNQKNYLAWYQQKPGQSPKLLVYFASTRESGVPVRFIGSGSGTDFTLTISSMQAEDLADYFCQQHYFSPLTFGAGTKLELK
notes: From mouse immunisation; only variable domains given
B3 showed an EC50 in experiment [5] of 2 nM.

B4: 19I01 (antibody, V domains shown)
VH: EVQLVESGGGLVKPGGSRKLSCAASGFTFSDYGMHWVRQAPEKGLEWVAYISSGSSTIYYADTVKGRFTISRDNAKNTLFLQMTSLRSEDTAMYYCARGVDGYWGQGTTLTVSS
VL: DVVMTQTPLSLPVSLGDQASISCRSSQSLVHSNGNTYLHWYLQKPGQSPKFLIYKVSNRFSGVPDRFSGSGSGTDFTLKISRVEAEDLGVYFCSQTTHVPLTFGAGTKLELK
notes: From mouse immunisation; only variable domains given; also called 19101
The molecule B4 returned an EC50 in experiment [6] of 2.95 nM. In experiment [7], this molecule showed an EC50Ala/EC50 wt of 24.6 fold.

B5: 03D07 (antibody, IgG4, V domains shown)
VH: EVKLLESGGGLVQPGGSLRLSCAASGFTFSSYALSWVRQAPGKGLEWVSAISGSGGNTYYADSVKGRFTISRDNSKNTLYLQMNSLRAEDTAVYYCAKVVGATNYWGQGTLVTVSS
VL: DIVMTQTPLSLPVTLGQPASISCRSSQSLVYSDGHTYLSWFHQRPGQSPRRLIYKVSIRDSGVPDRFSGSGSGTDFTLKISRVEAEDVGVYYCMQRLQIPLTFGGGTKVEIK
Molecule B5 displayed an EC50 in experiment [8] of over 3000 nM. Also, the “EC50/EC50 3x(SO3)Y” value in experiment [9] was over 100 fold.

B6: 18F02 (antibody, V domains shown)
VH: QVQLQQPGAELVKPGASVKLSCKASGYTFTSYWMHWVKQRPGQGLEWIGMIHPNSGRTNYNEKFKSKATLTVDKSSSTAYMQLSSLTSEDSAVYYCARSDYWGQGTTLTVSS
VL: DIVMTQAAFSNPVTLGTSASISCRSSKSLLHSDGITYLYWFLQRPGQSPQLLIYRMSNLASGVPDRFSGSGSGTDFTLRISRVEAEDVGVYYCAQMLEFPRTFGGGTKLEIK
notes: as for B3
With B6, in [6], a half-maximal effect (EC50) was put at 7.1 nM. Further, the binding result in experiment [10] and in experiment [11] was “no binding (tested: 10 nM)” each time. Further, the EC50Ala/EC50 wt in experiment [7] came out at 59.2 fold.

B7: 16L15 (antibody, V domains shown)
VH: DVKLVESGGGLVKLGGSLKLSCAASGFTFSSYYMSWVRQTPEKRLEWVATISNGGGSTYYPDSVKDRFTISRDNAKNTLYLQMSSLNSEDTAVYYCAKPLYYSNPWFAYWGQGTLVTVSA
VL: DVLLTQTPLSLPVSLGDQASISCRSSQSIVHSNGNTYLEWYLQKPGQSPKLLIYKVSNRFSGVPDRFSGSGSGTDFTLKISRVEAEDLGVYYCFQGSHVPRTFGGGTKLEIK
notes: as for B3
Regarding B7, the binding result in the experiment with PSGL-1(49-56)-Biotin is reported as “no binding (tested: Log M -7.7 (about 20 nM))”. In addition, the EC50 in [2] amounted to 3.43 nM; in [12], 8.83 nM. For the same molecule, the EC50Ala/EC50 wt in [4] was determined as 3.6 fold; in experiment [13], 9.3 fold.

B8: 9F9 (antibody, V domains shown)
VH: EVQLVETGGGLVQPKGSLKLSCAASGFTFNTNAMNWVRQAPGKGLEWVARIRSKSNNYATYYADSVKDRFTISRDDTQSMIYLQMNNLKTEDTGMYYCVRGGSYWYFDVWGAGTTVTVSS
VL: B7 VL with L4M, H31N, R101W
notes: Control anti-PSGL-1 mAb, recombinant; only variable domains given; also called 9F6
As for B8, the values for the EC50 in [3] and in experiment [12] were 2.31 nM and 1.72 nM, respectively. In experiment [13], the EC50Ala/EC50 wt is 10.8 fold.

B9: 18K07 (antibody, V domains shown)
VH: QIQLVQSGPELKKPGETVKISCEASGYTFTTYGMNWVKQAPGKGLKWMGWINTYSGVPTYADDFQGRFAFSVETSATTAYLQINNLKNEDAATYFCARSDDTYYGFAYWGQGTLVTVSA
VL: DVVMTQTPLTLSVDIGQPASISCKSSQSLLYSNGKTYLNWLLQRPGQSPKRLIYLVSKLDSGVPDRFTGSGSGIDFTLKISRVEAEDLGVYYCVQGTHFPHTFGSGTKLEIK
notes: as for B3
As for B9, the binding result in experiment [10] and in experiment [11] was “no binding (tested: 10 nM)” in each case.
